# Results from patent publication US20200299380A1 (published 2020).
# T1: recombinant human MICA extracellular domain recombinant-His protein (MICA*001 allele) (human, UniProt Q29983 24-297)
# T1 construct: also called MICA*001-His; MICA-His; not shown: His tag
# T1 sequence: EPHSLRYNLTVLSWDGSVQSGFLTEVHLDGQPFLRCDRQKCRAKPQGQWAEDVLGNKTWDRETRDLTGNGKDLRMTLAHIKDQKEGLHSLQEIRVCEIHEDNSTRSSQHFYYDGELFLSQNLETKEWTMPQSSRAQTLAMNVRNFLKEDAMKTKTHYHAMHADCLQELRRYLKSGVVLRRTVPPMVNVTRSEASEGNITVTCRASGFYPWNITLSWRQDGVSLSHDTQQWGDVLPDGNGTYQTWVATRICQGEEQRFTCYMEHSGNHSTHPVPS
# T2: MICB-Fc (R&D Systems 1599-MB) (human, UniProt Q29980 23-298, limits assumed)
# T2 construct: Bought; also called human MICB-Fc; not shown: Fc of the bought fusion protein
# T2 sequence: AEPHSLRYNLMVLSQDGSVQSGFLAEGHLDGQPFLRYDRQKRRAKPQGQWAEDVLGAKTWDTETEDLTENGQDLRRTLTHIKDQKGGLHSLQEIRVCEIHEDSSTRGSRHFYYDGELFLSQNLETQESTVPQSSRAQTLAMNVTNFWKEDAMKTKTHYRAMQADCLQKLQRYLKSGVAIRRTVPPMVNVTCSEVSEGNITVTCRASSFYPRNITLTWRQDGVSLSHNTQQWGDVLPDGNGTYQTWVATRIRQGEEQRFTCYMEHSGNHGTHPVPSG
# T3: MICA*001 expressed at the cell surface (human, UniProt Q29983 24-297)
# T3 construct: the protein on cells also has its transmembrane and cytoplasmic parts (Genbank AAB41060); also called C1R-MICA*001; C1R-MICA*01
# T3 sequence: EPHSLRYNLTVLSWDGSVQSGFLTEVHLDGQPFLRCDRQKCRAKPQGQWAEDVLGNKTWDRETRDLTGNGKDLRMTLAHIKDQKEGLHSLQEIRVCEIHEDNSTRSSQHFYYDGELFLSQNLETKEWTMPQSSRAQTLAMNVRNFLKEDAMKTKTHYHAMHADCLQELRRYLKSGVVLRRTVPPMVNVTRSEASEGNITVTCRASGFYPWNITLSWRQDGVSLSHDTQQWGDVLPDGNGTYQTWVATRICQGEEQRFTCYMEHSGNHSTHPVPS
# T4: MICA*004 expressed at the cell surface (human, UniProt Q29983 24-297)
# T4 construct: also called C1R-MICA*004; C1R-MICA*04
# T4 chain: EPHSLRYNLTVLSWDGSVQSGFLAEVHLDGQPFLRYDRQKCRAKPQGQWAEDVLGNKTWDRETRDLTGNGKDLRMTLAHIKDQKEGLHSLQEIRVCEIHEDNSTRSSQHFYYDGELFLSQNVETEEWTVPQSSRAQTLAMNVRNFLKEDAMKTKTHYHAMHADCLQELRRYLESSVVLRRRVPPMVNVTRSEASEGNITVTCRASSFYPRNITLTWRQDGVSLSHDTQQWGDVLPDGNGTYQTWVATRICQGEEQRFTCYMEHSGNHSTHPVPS
# T5: MICA*007 expressed at the cell surface (human, UniProt Q29983 24-297)
# T5 construct: also called C1R-MICA*007; C1R-MICA*07
# T5 chain: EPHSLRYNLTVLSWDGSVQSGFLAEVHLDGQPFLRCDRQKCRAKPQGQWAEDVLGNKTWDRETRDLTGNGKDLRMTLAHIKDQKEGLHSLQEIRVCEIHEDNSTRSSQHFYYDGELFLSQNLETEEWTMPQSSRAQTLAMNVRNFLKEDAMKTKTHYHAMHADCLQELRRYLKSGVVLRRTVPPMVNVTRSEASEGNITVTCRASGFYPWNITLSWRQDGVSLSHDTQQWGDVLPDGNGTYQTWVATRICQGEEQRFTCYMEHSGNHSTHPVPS
# T6: MICA*008 expressed at the cell surface (human, UniProt Q29983 24-297)
# T6 construct: also called C1R-MICA*008; C1R-MICA*08
# T6 chain: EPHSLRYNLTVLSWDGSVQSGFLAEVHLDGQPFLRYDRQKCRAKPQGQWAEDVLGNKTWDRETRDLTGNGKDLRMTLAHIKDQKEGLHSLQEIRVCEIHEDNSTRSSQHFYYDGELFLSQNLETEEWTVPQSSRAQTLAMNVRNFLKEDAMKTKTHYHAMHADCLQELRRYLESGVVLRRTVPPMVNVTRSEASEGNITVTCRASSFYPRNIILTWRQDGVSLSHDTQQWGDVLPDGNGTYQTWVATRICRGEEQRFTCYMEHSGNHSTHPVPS
# T7: MICA*001-BirA (human, UniProt Q29983 24-297)
# T7 construct: also called MICA-BirA; MICA*01-BirA; not shown: BirA tag
# T7 sequence: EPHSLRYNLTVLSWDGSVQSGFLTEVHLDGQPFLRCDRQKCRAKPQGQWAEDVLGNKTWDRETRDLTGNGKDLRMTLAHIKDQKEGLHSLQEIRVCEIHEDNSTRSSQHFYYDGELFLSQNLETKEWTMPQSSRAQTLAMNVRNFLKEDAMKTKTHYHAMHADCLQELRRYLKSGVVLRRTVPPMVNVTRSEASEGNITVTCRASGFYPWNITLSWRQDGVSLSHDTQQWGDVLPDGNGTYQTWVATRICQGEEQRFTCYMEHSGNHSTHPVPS
# Key:
# [1] = biological target: T1, recombinant human MICA extracellular …; experiment: SPR (Biacore T100), monovalent affinity
# [2] = biological target: T1, recombinant human MICA extracellular …; experiment: SPR (Biacore T100), bivalent mean KD at pH 7.4, MICA*001-His on NTA chip, antibody injected
# Procedure: The binding of 6E4, 20C6 and 16A8 to either recombinant human MICA extracellular domain recombinant protein monomers or dimers (MICA*019 allele-Fc protein or MICA*001-His protein) as well as other NKG2D ligands MICB and ULBP1-2 was analyzed by Surface Plasmon Resonance (SPR) using a Biacore T100 apparatus to obtain monovalent and bivalent affinity, respectively.
# Each cycle consisted of three steps. Firstly, the NTA chip was activated with NiSO₄ (500 mM). Secondly, the MICA-His protein (diluted to 10 μg/ml in running buffer HBS-P) was immobilized onto the surface via a 2 min injection at a constant flowrate of 10 μL/min. Then the antibody was injected over the immobilized antigen for 2 min at the flow rate of 40 μl/min. Subsequently, the running buffer was injected for 5 min at 40 μl/min for antibody dissociation analysis. After each cycle, the surface was regenerated by a 60s injection of 0.5M EDTA, pH 8.3 to completely strip the surface of the remaining antigen and antibody. The resulting sensorgrams were analyzed by global fitting using the appropriate model.
# [3] = biological target: T2, MICB-Fc (R&D Systems 1599-MB); experiment: SPR, antibody injected over immobilized MICB-Fc
# Procedure: For cross-binding study, the human ULBP-1-Fc (R&D systems*), MICB-Fc (*), ULBP-2-Fc (*) and ULBP-3-Fc (*) recombinant proteins were covalently immobilized respectively on the flow cell one to four of a CM5 sensorchip. Anti-MICA antibodies (at a constant concentration of 10 μg/ml) were injected for 2 minutes at a flow rate of 10 μl/min onto the four flow cells in parallel. After each cycle, Sensorchip was regenerated by a five second injection of appropriate regeneration buffer.
# [4] = biological target: T3, MICA*001 expressed at the cell surface; experiment: flow cytometry on C1R transfectant cells, 4-parameter logistic fit
# Procedure: (§1) The binding of antibodies obtained from the first, second and third immunization series (including CHG1-M-MIA-19E9, CHG1-M-MIA-9C10, CHG1-M-MIA-6E4, CHG1-M-MIA-20C6, CHG1-M-MIA-16A8, CHG1-M-MIA-12A10, CHG1-M-MIA-10A7, CHG1-M-MIA-18E8, CHG1-M-MIA-10F3, CHG1-M-MIA-15F9 and CHG1-M-MIA-14B4) were tested for binding to MICA-expressing CR1 transfectant cells C1R-MICA*001, C1R-MICA*004, C1R-MICA*007 and C1R-MICA*008 (Pr. A. Steinle, Eberhard-Karls University Tuebingen, Germany) described in Salih et al. (2003) Blood 102(4): […]. Binding was analyzed by flow cytometry.
# (§2) Cells were harvested and stained in PBS 1×/BSA 0.2%/EDTA 2 mM buffer during 30 minutes at 4° C. using a dose-range of the anti-MICA mAbs. After two washes in staining buffer, cells were stained for 30 min at 4° C. with mouse anti-human IgG1-PE monoclonal antibodies (1/11). After two washes, stainings were acquired on a BD FACS Canto II and analyzed using the FlowJo software.
# (§3) Antibodies CHG1-M-MIA-19E9, CHG1-M-MIA-9C10, CHG1-M-MIA-6E4, CHG1-M-MIA-20C6, CHG1-M-MIA-12A10, CHG1-M-MIA-10A7, CHG1-M-MIA-18E8, CHG1-M-MIA-10F3, and CHG1-M-MIA-15F9 bound to each of the C1R-MICA*001, C1R-MICA*004, C1R-MICA*007 and C1R-MICA*008 cells (see FIG. 1A for antibodies CHG1-M-MIA-19E9, CHG1-M-MIA-9C10, CHG1-M-MIA-6E4, CHG1-M-MIA-20C6, CHG1-M-MIA-12A10, CHG1-M-MIA-10F3, and FIG. 1B for antibodies, CHG1-M-MIA-18E8, CHG1-M-MIA-15F9, CHG1-M-MIA-10A7). […] EC50 values are shown in Table C in μg/ml (calculated using a 4-parameter logistic fit).
# [5] = biological target: T4, MICA*004 expressed at the cell surface; experiment: as above
# Procedure: as §1, §2, §3
# [6] = biological target: T5, MICA*007 expressed at the cell surface; experiment: as above
# Procedure: as §1, §2, §3
# [7] = biological target: T6, MICA*008 expressed at the cell surface; experiment: as above
# Procedure: as §1, §2, §3
# MICA*001-BirA = biological target: T7, MICA*001-BirA; experiment: SPR single cycle kinetics, monovalent mean KD at pH 7.4, antibody captured on Protein-G chip, MICA-BirA injected
# Procedure: For monovalent affinity measurement, chimeric anti-MICA antibodies were captured onto a Protein-G chip.
# Affinities were determined using single cycle kinetics (SCK). SCK cycles were as follows: Successive 120s injections at 30 μl/min of 5 serial dilutions (0.01 to 100 nM) of MICA-His or MICA-BirA in ascending order (or of buffer for the blank injections to be subtracted during the analysis). After the last concentration is injected, complex is left to dissociate for 600s before regeneration by a 10s injection of appropriate regeneration buffer at 40 μl/min. After the regeneration, chip is left to stabilise for 60s in running buffer. Curves are fitted using Biacore T100 Evaluation software.
Binder,Kd [1],Kd [2],binding result [3],EC50 [4],EC50 [5],EC50 [6],EC50 [7],Kd (MICA*001-BirA)
"biotin-conjugated mouse antibody 20C6 (antibody, V domains shown, also called 20C6 (mouse)) VH: QITLKESGPGILKPSQTLSLTCSFSGFSLSTSGMGVGWIRQPSGKGLEWLAHIWWDDDKYYNPSLKSQLTISKDTSRNQVFLRITSVDTADTATYYCARRTQGYFDYWGQGTTLTVSS VL: DIVMTQSPATLSVTPGDRVSLSCRASQSISDYLHWYQQKSHESPRLLIKYASQSISGIPSRFSGSGSGSDFTLSINSVEPEDVGVYYCQNGHSFPWTFGGGTKLEIK",6.5 nM,0.33 nM,,,,,,
"CHG1-M-MIA-12A10 (antibody, human IgG1, V domains shown, the VH entry ends with ASTK) VH: QVQLQQSGADLVRPGASVRLSCRASGYSFTNYWMNWVKQRPGQGLEWIGMIHPSDSETRLNQKFKDKATLTVDKSSNTAYMQLSSPTSEDSAIYYCARDDFFTMDYWGQGTSVTVSS VL: DILLTQSPAILSVSPGERVSFSCRASQNIVTSIHWYQQSTNGSPRLLIKYASESISGIPSRFSGSGSGTDFTLTINSVESEDVADYYCQQSNIWPLTFGAGTKLELK",,,no binding (tested: 10 µg/ml),1.3 µg/mL,0.26 µg/mL,1.43 µg/mL,0.25 µg/mL,53 nM
"biotin-conjugated mouse antibody 9C10 (antibody, V domains shown, also called 9C10 (mouse)) VH: QVQLQQPGAELVRPGTSVNLSCKASGYSFTRYWMNWVKQRPGQGLEWIGMIHPSDSETRLNQKFKDKATLTVDKSSSTAYMQLSSPTSEDSAVYYCGYGNFFYVMDYWGQGTSVTVSS VL: DILLTQSPAILSVSPGERVSFSCRASQSIGTSIHWYQQRTNGSPRLLIKFASESISGIPSRFSGSGSGTDFTLNINSVESEDIADYYCQQSNFWPFTFGSGTKLEVK",,0.00062 nM,,,,,,
"CHG1-M-MIA-14B4 (antibody, V domains shown, the VH entry ends with ASTK) VH: QVQLQQPGAELVRPGASVKLSCKASGYSFTSYWMNWMKQRPGQGLEWIGMIHPSDSETRLNQKFKDKATLTVDKSSSTAYMQLNSPTSEDSAVYYCAREMGPYTLDYWGQGTSVTVSS VL: DILLTQSPAILSVSPGARVSFSCRASQNIDTSIHWYQQRTNGSPRLLIKYASESISGIPSRFSGSGSGTDFTLSINSVESEDIADYYCQQSNYWPLTFGAGTKLELK",,,no binding (tested: 10 µg/ml),12.7 µg/mL,0.24 µg/mL,,0.3 µg/mL,
"biotin-conjugated mouse antibody 6E4 (antibody, V domains shown, also called 6E4 (mouse)) VH: EVQLVESGGALVKPGGSLKLSCAASGFTFSYYAMSWVRQTPEKRLEWVATISRGGNYIYYTDSVKGRFTISRDNAKNTLYLQMTSLRSEDTAMFYCASISDYDGAWLAYWGQGTLVTV VL: DVLMTQTPLSLPVSLGDQASISCRSSQSIIHTNGNTYLEWYLQKPGQSPKLLIYKISNRFSGVPDRFSGSGSGTDFTLKISRVEAEDLGVYYCFQGSHVPWTFGGGTKLEIK",2 nM,0.031 nM,,,,,,
